Laboratory results published in publication PMC4128009.

Tests used:
Experiment in all cases: pull-down
[1] = target: His6-Spx F113A (Bacillus subtilis) (UniProt O31602)
[2] = target: His6-Spx L114A (Bacillus subtilis) (UniProt O31602)
[3] = target: His6-Spx R112A (Bacillus subtilis) (UniProt O31602)

Geobacillus thermodenitrificans YjbH (GtYjbH), without tag (natural protein)
decrease of YjbH binding compared to the WT [1]: 80% | decrease of YjbH binding compared to the WT [2]: 50% | decrease of YjbH binding compared to the WT [3]: 80%
